Like-named read-outs stand apart in the source and are kept apart here.
T1: EBOV GP (recombinant, full-length extracellular domain) (EBOV (Ebola Zaire), UniProt Q05320 33-650)
T1 chain: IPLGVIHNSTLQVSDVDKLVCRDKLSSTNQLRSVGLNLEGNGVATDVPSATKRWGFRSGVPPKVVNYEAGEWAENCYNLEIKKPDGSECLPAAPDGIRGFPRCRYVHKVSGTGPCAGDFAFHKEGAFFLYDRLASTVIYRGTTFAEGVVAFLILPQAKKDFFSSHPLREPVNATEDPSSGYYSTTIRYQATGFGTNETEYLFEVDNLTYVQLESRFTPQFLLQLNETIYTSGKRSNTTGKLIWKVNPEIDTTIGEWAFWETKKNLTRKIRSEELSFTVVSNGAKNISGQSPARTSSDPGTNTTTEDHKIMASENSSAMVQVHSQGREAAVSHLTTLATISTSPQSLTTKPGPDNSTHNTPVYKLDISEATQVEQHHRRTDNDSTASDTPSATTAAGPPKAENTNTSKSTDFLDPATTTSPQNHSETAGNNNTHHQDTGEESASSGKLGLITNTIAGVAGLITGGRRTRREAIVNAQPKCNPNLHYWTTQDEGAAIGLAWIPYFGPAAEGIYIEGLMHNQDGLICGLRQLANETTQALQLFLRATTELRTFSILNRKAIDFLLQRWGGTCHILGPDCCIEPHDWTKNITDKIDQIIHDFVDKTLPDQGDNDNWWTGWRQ

T2: EBOV sGP (EBOV (Ebola Zaire), UniProt P60170 33-324)
T2 chain: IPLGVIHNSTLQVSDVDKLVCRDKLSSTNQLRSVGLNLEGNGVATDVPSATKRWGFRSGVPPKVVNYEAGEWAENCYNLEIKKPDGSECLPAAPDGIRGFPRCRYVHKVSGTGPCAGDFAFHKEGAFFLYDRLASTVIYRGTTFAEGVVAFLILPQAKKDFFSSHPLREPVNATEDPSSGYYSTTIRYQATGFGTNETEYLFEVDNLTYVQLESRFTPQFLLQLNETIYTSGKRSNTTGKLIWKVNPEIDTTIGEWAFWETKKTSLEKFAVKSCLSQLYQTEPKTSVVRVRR

T3: SUDV GP (recombinant) (SUDV (Sudan ebolavirus), UniProt Q66814 33-650)
T3 chain: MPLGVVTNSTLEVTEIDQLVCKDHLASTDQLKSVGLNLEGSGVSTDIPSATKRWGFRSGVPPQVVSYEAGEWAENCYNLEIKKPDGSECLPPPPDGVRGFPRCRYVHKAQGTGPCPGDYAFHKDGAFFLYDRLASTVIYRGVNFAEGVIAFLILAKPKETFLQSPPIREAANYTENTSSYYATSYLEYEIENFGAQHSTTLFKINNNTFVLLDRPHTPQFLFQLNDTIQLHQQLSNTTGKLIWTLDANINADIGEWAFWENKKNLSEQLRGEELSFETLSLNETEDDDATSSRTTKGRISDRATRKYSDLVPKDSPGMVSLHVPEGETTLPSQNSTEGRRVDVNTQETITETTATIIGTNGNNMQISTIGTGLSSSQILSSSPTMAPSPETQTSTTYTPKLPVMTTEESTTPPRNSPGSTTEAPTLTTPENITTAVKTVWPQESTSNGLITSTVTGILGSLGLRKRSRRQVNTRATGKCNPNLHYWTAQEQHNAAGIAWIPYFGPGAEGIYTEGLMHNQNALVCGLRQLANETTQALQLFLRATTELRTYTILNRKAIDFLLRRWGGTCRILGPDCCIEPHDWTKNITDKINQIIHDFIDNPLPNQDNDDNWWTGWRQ


Columns and labels:
Assay in all cases: ELISA
BDBV GP [1] = biological target: T4, BDBV GP (BDBV (Bundibugyo ebolavirus))
MARV GP [2] = biological target: MARV GP
BDBV sGP = BDBV sGP (BDBV (Bundibugyo ebolavirus))
BDBV GP [3] = biological target: T4, BDBV GP; remark: listed apart in the source
MARV GP [4] = biological target: MARV GP; remark: listed apart in the source
[5] = biological target: T1, EBOV GP (recombinant, full-length …)
EBOV sGP = biological target: T2, EBOV sGP
SUDV GP (recombinant) = biological target: T3, SUDV GP (recombinant)

Row | Binder | EC50 (BDBV GP [3]) | EC50 (MARV GP [4]) | EC50 [5] | EC50 (EBOV sGP) | EC50 (SUDV GP (recombinant)) | further results
1 | 270 (antibody, V domains shown) VH: QVQLQESGPGLVKPSQTLSLTCTVSGASISRGLYYWSWIRQPAGKGLEWIGRIYTSGSINYNPSLKSRVTISVDTSKNQFSLRLSSVIATDTAVYYCVRDAPWGDFLTGYFGFYGMDVWGQGTLVTVSS VL: DIVMTQSPSSLSASVGDRVTITCRASQSINTYLNWYQQKPGKAPKFLIYAASSLHSGVPSRFSGSGSGTDFTLTINSLQPDDFATYYCQQSFTTPYTFGQGTKLEIK | – | – | – | – | – | EC50 (BDBV GP [1]): 0.154 µg/mL; EC50 (MARV GP [2]): > 10 µg/mL; EC50 (BDBV sGP): 0.025 µg/mL
2 | 87 (antibody, V domains shown) VH: QVQLVQSGAEVKRPGASVKVSCKASGYTFTSYAISWVRQAPGQGLEWMGWISGNNGNTNYAQKLQGRLTMTTDTSTSTAYMELRSLRSDDTAVYYCARDADIVVVVGATGTYYYGMDVWGQGTLVTVSS VL: DIVMTQSPSTLSASVGDRVTITCRASQSISSWLAWYQQKPGKAPKLLIYDASSLESGVPSRFSGSGSGTEFTLTISSLQPDDFATYYCQQYKSSLRTFGQGTQLEIK | 1.39 µg/mL | > 10 µg/mL | – | – | – | –
3 | EBOV87 (antibody, V domains shown) VH: QVQLVQSGAEVKRPGASVKVSCKASGYTFTSYAISWVRQAPGQGLEWMGWISGNNGNTNYAQKLQGRLTMTTDTSTSTAYMELRSLRSDDTAVYYCARDADIVVVVGATGTYYYGMDVWGQGTLVTVSS VL: DIVMTQSPSTLSASVGDRVTITCRASQSISSWLAWYQQKPGKAPKLLIYDASSLESGVPSRFSGSGSGTEFTLTISSLQPDDFATYYCQQYKSSLRTFGQGTQLEIK | – | – | 0.724 µg/mL | 0.051 µg/mL | 0.629 µg/mL | –
4 | 289 (antibody, V domains shown) VH: QVQLVQSGAEVKKPGSSVKVSCKASGATFGSDTVTWVRQAPGQGLEWMGGIIPFFGEANYAQRFQGRVTITADKSTNTAYMELSSLRSEDTAVYFCARQINEMATFGEIHYYTYMDVWGQGTLVTVSS VL: GSELTQDPAVSVALGQTVRITCQGDSLRNYYASWYQQKPRQAPVLVFYGKNNRPSGIPDRFSGSSSGNTASLTISGAQAEDEADYYCNSRDSSSNHLVFGGGTKLTVLS | – | – | – | – | – | EC50 (BDBV GP [1]): 0.02 µg/mL; EC50 (MARV GP [2]): > 10 µg/mL; EC50 (BDBV sGP): 0.006 µg/mL
5 | EBOV63 (antibody, V domains shown) VH: EVQLVESGGGLVKPGGSLRLSCAASGFTLNFYNMNWVRQAPGKGLEWVSSISSSSNYIYYADSVKGRFTISRDNARKSLYLQMNSLRAEDTAVYYCARDFVQLLIPQRDEWQGVHDYYGMDVWGQGTLVTVSS VL: EIVLTQSPGTLSLSPGGRATLSCRASQSVSNSYLAWYQQKPGQAPRLLIYGASSRATGIPDRFSGSGSGTDFILTISRLEPEDFAVYYCQHYGSSQLTFGGGTKVEIK | – | – | 0.283 µg/mL | 0.038 µg/mL | > 10 µg/mL | –
6 | 63 (antibody, V domains shown) VH: EVQLVESGGGLVKPGGSLRLSCAASGFTLNFYNMNWVRQAPGKGLEWVSSISSSSNYIYYADSVKGRFTISRDNARKSLYLQMNSLRAEDTAVYYCARDFVQLLIPQRDEWQGVHDYYGMDVWGQGTLVTVSS VL: EIVLTQSPGTLSLSPGGRATLSCRASQSVSNSYLAWYQQKPGQAPRLLIYGASSRATGIPDRFSGSGSGTDFILTISRLEPEDFAVYYCQHYGSSQLTFGGGTKVEIK | > 10 µg/mL | > 10 µg/mL | – | – | – | –
7 | 223 (antibody, V domains shown) VH: QVQLQQWGAGLLKPSETLSLTCAVYGGSFTTTYWNWIRQPPGKGLEWIGEVNYSGNANYNPSLKGRVAISVDTSKNQFSLRLNSVTAADTAIYYCTSRIRSHIAYSWKGDVWGKGTTVTVSS VL: EIVMTQSPGTLSLSPGERATLSCRASQSVPRNYIGWFQQKPGQAPRLLIYGASSRAAGFPDRFSGSGSGTDFTLTITRLEPEDFAMYYCHQYDRLPYTFGQGTKLEIK | – | – | – | – | – | EC50 (BDBV GP [1]): 0.022 µg/mL; EC50 (MARV GP [2]): > 10 µg/mL; EC50 (BDBV sGP): > 10 µg/mL
8 | 324 (antibody, V domains shown) VH: QVQLVQSGAEVKKPGASVKVSCKTSGYTFTSFEIHWVRQGSGQGLEWMGRMNPKSGDTVSAQKFQGRVTLTRDTSINAAYMELGSLSSEDTAVYYCARGPHVGEVVPGLMAGTYYFPLDVWGQGTLVTVSS VL: DIQMTQSPSTLSASIGDRVTITCRASQSISRWLAWYQQKPGKAPKLLIYKVSDLQSGVPSRFSGSGYGTEFTLTIGSLQPDDLATYYCQQYDTYPWTFGQGTKLEIK | – | – | – | – | – | EC50 (BDBV GP [1]): 0.053 µg/mL; EC50 (MARV GP [2]): > 10 µg/mL; EC50 (BDBV sGP): 0.012 µg/mL
9 | EBOV62 (antibody, V domains shown) VH: EVQLVESGGGLVQPGGSLRLSCAASGFTFSSYWMSWVRQAPGKGLEWVANIKQDGSAKYYVDSVKGRFTISRDNAKNSLYLQMNSLRAEDTAVYYCARDGLLGISDLLYPIYYFDYWGQGTLVTVSS VL: DIVMTQSPSSLSASVGDRVTITCRASQNIGSYLNWYQQKPGKAPNLLMYAASSLQSGVPSRFSGSGSGTDFTLTITSLQPEDFATYYCQQSYSIPRTFGQGTQLEIK | – | – | 0.228 µg/mL | 0.051 µg/mL | > 10 µg/mL | –
10 | 62 (antibody, V domains shown) VH: EVQLVESGGGLVQPGGSLRLSCAASGFTFSSYWMSWVRQAPGKGLEWVANIKQDGSAKYYVDSVKGRFTISRDNAKNSLYLQMNSLRAEDTAVYYCARDGLLGISDLLYPIYYFDYWGQGTLVTVSS VL: DIVMTQSPSSLSASVGDRVTITCRASQNIGSYLNWYQQKPGKAPNLLMYAASSLQSGVPSRFSGSGSGTDFTLTITSLQPEDFATYYCQQSYSIPRTFGQGTQLEIK | 0.508 µg/mL | > 10 µg/mL | – | – | – | –
11 | 52 (antibody, V domains shown) VH: QVQLQESGPGLVKPSETLSLNCTVSGGSISSYYWSWIRQPPGKGLEWIGYIYDSGRTKYNPSLKSRVTISLDTSKNQFSLKLSSVTAADTAVYYCASLGPFDKLWFGELLPGWFDPWGQGTLVTVSS VL: EIVLTQSPATLSLSPGGRATLSCRASQSVHNYLAWYQQKSGQAPRLLIYDASNRATGIPARFSGSGSGTDFTLTISSLEPDDFAVYYCQHRSNWLTFGGGTKVEIK | 1.84 µg/mL | > 10 µg/mL | – | – | – | –
12 | EBOV52 (antibody, V domains shown) VH: QVQLQESGPGLVKPSETLSLNCTVSGGSISSYYWSWIRQPPGKGLEWIGYIYDSGRTKYNPSLKSRVTISLDTSKNQFSLKLSSVTAADTAVYYCASLGPFDKLWFGELLPGWFDPWGQGTLVTVSS VL: EIVLTQSPATLSLSPGGRATLSCRASQSVHNYLAWYQQKSGQAPRLLIYDASNRATGIPARFSGSGSGTDFTLTISSLEPDDFAVYYCQHRSNWLTFGGGTKVEIK | – | – | 0.712 µg/mL | 0.082 µg/mL | > 10 µg/mL | –
13 | 49 (antibody, V domains shown) VH: EVQLVESGGGLVQPGGSLRLSCAASGFTFSSYEINWVRQAPGRGLEWVSYISSSGRTIYYADSVKGRFTISRDNAKNSLYLQMNSLRAEDTAVYYCAREPYVDGILYGAGDSYFDYWGQGTLVTVSS VL: DIQMTQSPSSLSASVGDRVTITCRASQSISNYLNWYQQKPGKAPKVLIYAASSLQSGVSSRFSGSGSGTDFTLTISSLQPEDFATYFCQQSYNTPPVTFGQGTRLEIK | > 10 µg/mL | > 10 µg/mL | – | – | – | –
14 | EBOV49 (antibody, V domains shown) VH: EVQLVESGGGLVQPGGSLRLSCAASGFTFSSYEINWVRQAPGRGLEWVSYISSSGRTIYYADSVKGRFTISRDNAKNSLYLQMNSLRAEDTAVYYCAREPYVDGILYGAGDSYFDYWGQGTLVTVSS VL: DIQMTQSPSSLSASVGDRVTITCRASQSISNYLNWYQQKPGKAPKVLIYAASSLQSGVSSRFSGSGSGTDFTLTISSLQPEDFATYFCQQSYNTPPVTFGQGTRLEIK | – | – | 0.262 µg/mL | 0.061 µg/mL | > 10 µg/mL | –

From patent publication US20200200749A1 (published 2020)
